Consider 21 molecules from patent US20150203577A1 (Chugai, published 2015).

Substitutions are numbered along the chain they refer to.

In one test the target is T1, mouse FcγRIII (mouse, UniProt P08508 31-215).
T1 construct: also called mFcγRIII; mFcgRIII
T1 chain: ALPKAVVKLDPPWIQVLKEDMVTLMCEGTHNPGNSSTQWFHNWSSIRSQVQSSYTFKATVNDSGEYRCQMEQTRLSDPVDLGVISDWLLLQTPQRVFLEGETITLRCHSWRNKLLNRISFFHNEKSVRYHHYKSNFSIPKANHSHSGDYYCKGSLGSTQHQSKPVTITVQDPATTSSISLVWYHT
In words: SPR (Biacore), antibody captured on Protein L, mFcγR as analyte. The procedure: (§1) Each altered antibody was analyzed for its interaction with each Fcγ receptor prepared above using Biacore T100 (GE Healthcare Japan Corp.), Biacore T200 (GE Healthcare Japan Corp.), Biacore A100, or Biacore 4000. The running buffer used was HBS-EP+ (GE Healthcare Japan Corp.). The assay temperature was set to 25° C. The sensor chips used were chips prepared by immobilizing Protein L (ACTIGEN or BioVision) onto Series S Sensor Chip CM5 (GE Healthcare Japan Corp.) or Series S Sensor Chip CM4 (GE Healthcare Japan Corp.) by the amine coupling method.
(§2) In order to calculate the KD value of each altered antibody for FcγR, kinetic analysis was conducted according to the following method: first, the antibody of interest was captured onto any of these chips and allowed to interact with mFcγR diluted with a running buffer. For the obtained sensorgram, the assay results were globally fit into the 1:1 Langmuir binding model using Biacore Evaluation Software to calculate an association rate constant ka (L/mol/s) and a dissociation rate constant kd (1/s). From these values, the dissociation constant KD (mol/L) was calculated.

The next test has as its target T2, mouse FcγRII (mouse, UniProt P08101 30-210).
T2 construct: also called mFcγRII; mFcgRII
T2 sequence: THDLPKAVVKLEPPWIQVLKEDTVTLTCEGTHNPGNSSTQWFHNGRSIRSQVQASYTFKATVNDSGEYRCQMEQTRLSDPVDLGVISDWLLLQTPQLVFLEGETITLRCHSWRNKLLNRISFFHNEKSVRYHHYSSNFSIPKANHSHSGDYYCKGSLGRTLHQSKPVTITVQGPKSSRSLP
The test is described as above. Here is the method:
as §1, §2

A word on the Kd: it is a measure of binding affinity in units of concentration. High values mean weaker binding, low ones tighter binding.

B1: H237-MB731/MRAL-k0 (antibody, mouse IgG1, kappa)
heavy: QVQLQESGPGLVKPSETLSLTCAVSGHSISHDHAWSWVRQPPGEGLEWIGFISYSGITNYNPSLQGRVTISRDNSKNTLYLQMNSLRAEDTAVYYCARSLARTTAMDYWGEGTLVTVSSAKTTPPSVYPLAPGSAAQTNSMVTLGCLVKGYFPEPVTVTWNSGSLSSGVHTFPAVLQSDLYTLSSSVTVPSSTWPSETVTCNVAHPASSTKVDKKIVPRDCGCKPCICEPAEEELVFIFPPKPKDVLTITLTPKVTCVVVDISKDDPEVQFSWFVDDVEVHTAQTQPREEQFNSTFRSVSELPIMHQDWLNGKEFKCRVNSAAFPAPIEKTISKTKGRPKAPQVYTIPPPKEQMAKDKVSLTCMITDFFPEDITVEWQWNGQPAENYKNTQPIMDTDGSYFVYSKLNVQKSNWEAGNTFTCSVLHEGLHNHHTEKSLSHSPGK
light: not shown
notes: mouse IgG1 CH variant; copies: 2 + 2
With B1, in the test with mouse FcγRIII, the dissociation constant Kd worked out at 15300 nM and the “relative mFcγRIII-binding activity (mIgG1 = 1)” value worked out at 0.03 fold. In addition, in the test with mouse FcγRII, the affinity, expressed as Kd, was 238 nM and the “relative mFcγRII-binding activity (mIgG1 = 1)” value came to 1.13 fold.

B2: H237-MB781/MRAL-k0 (antibody, mouse IgG1, kappa)
heavy: B1 heavy with A231N, E233V, A326K
light: not shown
notes: as for B1
With B2, in the test with mouse FcγRIII, the Kd turned out to be 2120 nM and the “relative mFcγRIII-binding activity (mIgG1 = 1)” value amounted to 0.19 fold. Further, in the test with mouse FcγRII, binding was characterised by a dissociation constant (Kd) of 40.5 nM and the “relative mFcγRII-binding activity (mIgG1 = 1)” value was found to be 6.08 fold.

B3: H237-MB765/MRAL-k0 (antibody, mouse IgG1, kappa)
heavy: B1 heavy with A231N, E233V, N320L
light: not shown
notes: as for B1
On to B3, for which, in the test with mouse FcγRIII, binding was characterised by a dissociation constant (Kd) of 2560 nM and the “relative mFcγRIII-binding activity (mIgG1 = 1)” value was 0.15 fold. In the test with mouse FcγRII, the Kd was found to be 39.6 nM and the “relative mFcγRII-binding activity (mIgG1 = 1)” value stood at 6.23 fold.

B4: H237-MB793/MRAL-k0 (antibody, mouse IgG1, kappa)
heavy: B1 heavy with E229Q, A231N, E233V, L235I
light: not shown
notes: as for B1
For B4, in the test with mouse FcγRIII, the Kd is 5500 nM and the “relative mFcγRIII-binding activity (mIgG1 = 1)” value is 0.07 fold. Further, in the test with mouse FcγRII, binding was characterised by a dissociation constant (Kd) of 179 nM and the “relative mFcγRII-binding activity (mIgG1 = 1)” value came out at 1.37 fold.

B5: H237-MB752/MRAL-k0 (antibody, mouse IgG1, kappa)
heavy: B1 heavy with A231N, E233V, S294L
light: not shown
notes: as for B1
In the case of B5, in the test with mouse FcγRIII, the Kd is 3280 nM and the “relative mFcγRIII-binding activity (mIgG1 = 1)” value is 0.11 fold. In addition, in the test with mouse FcγRII, the affinity, expressed as Kd, was 35.1 nM and the “relative mFcγRII-binding activity (mIgG1 = 1)” value was determined as 5.24 fold.

B6: H237-MB753/MRAL-k0 (antibody, mouse IgG1, kappa)
heavy: B1 heavy with A231N, E233V, S294M
light: not shown
notes: as for B1
As for B6, in the test with mouse FcγRIII, the Kd amounted to 4260 nM and the “relative mFcγRIII-binding activity (mIgG1 = 1)” value amounted to 0.09 fold. Also, in the test with mouse FcγRII, binding was characterised by a dissociation constant (Kd) of 36.8 nM and the “relative mFcγRII-binding activity (mIgG1 = 1)” value worked out at 5 fold.

B7: H237-MB768/MRAL-k0 (antibody, mouse IgG1, kappa)
heavy: B1 heavy with A231N, E233V, A326Q
light: not shown
notes: as for B1
Consider B7, for which, in the test with mouse FcγRIII, the dissociation constant (Kd) stood at 2030 nM and the “relative mFcγRIII-binding activity (mIgG1 = 1)” value came out at 0.2 fold. Further, in the test with mouse FcγRII, the Kd stood at 38.9 nM and the “relative mFcγRII-binding activity (mIgG1 = 1)” value was 6.34 fold.

B8: H237-MB767/MRAL-k0 (antibody, mouse IgG1, kappa)
heavy: B1 heavy with A231N, E233V, A326G
light: not shown
notes: as for B1
As for B8, in the test with mouse FcγRIII, binding was put at a Kd of 8790 nM and the “relative mFcγRIII-binding activity (mIgG1 = 1)” value was 0.04 fold. In the test with mouse FcγRII, the Kd is 117 nM and the “relative mFcγRII-binding activity (mIgG1 = 1)” value is 2.1 fold.

B9: H237-MB757/MRAL-k0 (antibody, mouse IgG1, kappa)
heavy: B1 heavy with A231N, E233V, S294M, N320D
light: not shown
notes: as for B1
In the case of B9, in the test with mouse FcγRIII, the Kd is 3230 nM and the “relative mFcγRIII-binding activity (mIgG1 = 1)” value stood at 0.11 fold. Also, in the test with mouse FcγRII, the dissociation constant Kd came out at 27.8 nM and the “relative mFcγRII-binding activity (mIgG1 = 1)” value worked out at 6.63 fold.

B10: H237-MB762/MRAL-k0 (antibody, mouse IgG1, kappa)
heavy: B1 heavy with A231N, E233V, F292E
light: not shown
notes: as for B1
Consider B10, for which, in the test with mouse FcγRIII, the equilibrium dissociation constant (Kd) stood at 3220 nM and the “relative mFcγRIII-binding activity (mIgG1 = 1)” value was 0.12 fold. Further, in the test with mouse FcγRII, the Kd stood at 48.1 nM and the “relative mFcγRII-binding activity (mIgG1 = 1)” value was 5.12 fold.

B11: H237-MB748/MRAL-k0 (antibody, mouse IgG1, kappa)
heavy: B1 heavy with A231N, E233V, S263A
light: not shown
notes: as for B1
Turning to B11, in the test with mouse FcγRIII, the Kd was found to be 2060 nM and the “relative mFcγRIII-binding activity (mIgG1 = 1)” value was 0.18 fold. Also, in the test with mouse FcγRII, the dissociation constant Kd turned out to be 17.9 nM and the “relative mFcγRII-binding activity (mIgG1 = 1)” value came out at 10.3 fold.

B12: H237-MB769/MRAL-k0 (antibody, mouse IgG1, kappa)
heavy: B1 heavy with A231N, E233V, P327D
light: not shown
notes: as for B1
On to B12, for which, in the test with mouse FcγRIII, the Kd came out at 4380 nM and the “relative mFcγRIII-binding activity (mIgG1 = 1)” value was found to be 0.09 fold. Besides, in the test with mouse FcγRII, the affinity, expressed as Kd, was 63.2 nM and the “relative mFcγRII-binding activity (mIgG1 = 1)” value is 3.9 fold.

B13: H237-MB764/MRAL-k0 (antibody, mouse IgG1, kappa)
heavy: B1 heavy with A231N, E233V, F292T
light: not shown
notes: as for B1
Take B13: in the test with mouse FcγRIII, the Kd amounted to 5150 nM and the “relative mFcγRIII-binding activity (mIgG1 = 1)” value was 0.08 fold. Besides, in the test with mouse FcγRII, the dissociation constant Kd came out at 84.9 nM and the “relative mFcγRII-binding activity (mIgG1 = 1)” value is 2.9 fold.

B14: H237-MB758/MRAL-k0 (antibody, mouse IgG1, kappa)
heavy: B1 heavy with A231N, E233V, S294M, K330R
light: not shown
notes: as for B1
As for B14, in the test with mouse FcγRIII, binding was characterised by a dissociation constant (Kd) of 2110 nM and the “relative mFcγRIII-binding activity (mIgG1 = 1)” value was found to be 0.17 fold. In addition, in the test with mouse FcγRII, the equilibrium dissociation constant (Kd) was 21.5 nM and the “relative mFcγRII-binding activity (mIgG1 = 1)” value worked out at 8.57 fold.

B15: H237-MB830/MRAL-k0 (antibody, mouse IgG1, kappa)
heavy: B1 heavy with A231N, E233V, P327F, E329Y
light: not shown
notes: as for B1
Turning to B15, in the test with mouse FcγRIII, the Kd turned out to be 3380 nM and the “relative mFcγRIII-binding activity (mIgG1 = 1)” value amounted to 0.1 fold. Also, in the test with mouse FcγRII, the Kd stood at 43.6 nM and the “relative mFcγRII-binding activity (mIgG1 = 1)” value came out at 4.78 fold.

B16: H237-MB763/MRAL-k0 (antibody, mouse IgG1, kappa)
heavy: B1 heavy with A231N, E233V, F292N
light: not shown
notes: as for B1
B16: in the test with mouse FcγRIII, the Kd was determined as 3970 nM and the “relative mFcγRIII-binding activity (mIgG1 = 1)” value was found to be 0.1 fold. Also, in the test with mouse FcγRII, the Kd came to 61.9 nM and the “relative mFcγRII-binding activity (mIgG1 = 1)” value amounted to 3.98 fold.

B17: H237-MB732/MRAL-k0 (antibody, mouse IgG1, kappa)
heavy: B1 heavy with A231N
light: not shown
notes: as for B1
As for B17, in the test with mouse FcγRIII, the affinity, expressed as Kd, was 13700 nM and the “relative mFcγRIII-binding activity (mIgG1 = 1)” value is 0.03 fold. Further, in the test with mouse FcγRII, the Kd worked out at 321 nM and the “relative mFcγRII-binding activity (mIgG1 = 1)” value is 0.84 fold.

B18: H237-MB772/MRAL-k0 (antibody, mouse IgG1, kappa)
heavy: B1 heavy with A231N, E233V, E329N
light: not shown
notes: as for B1
Regarding B18, in the test with mouse FcγRIII, the Kd is 3890 nM and the “relative mFcγRIII-binding activity (mIgG1 = 1)” value was found to be 0.1 fold. Moreover, in the test with mouse FcγRII, the dissociation constant Kd was found to be 60.5 nM and the “relative mFcγRII-binding activity (mIgG1 = 1)” value stood at 4.07 fold.

B19: H237-MB778/MRAL-k0 (antibody, mouse IgG1, kappa)
heavy: B1 heavy with A231N, E233V, S333K
light: not shown
notes: as for B1
Take B19: in the test with mouse FcγRIII, the dissociation constant Kd was 2540 nM and the “relative mFcγRIII-binding activity (mIgG1 = 1)” value is 0.16 fold. Besides, in the test with mouse FcγRII, the Kd was 34.2 nM and the “relative mFcγRII-binding activity (mIgG1 = 1)” value is 7.21 fold.

B20: H237-MB755/MRAL-k0 (antibody, mouse IgG1, kappa)
heavy: B1 heavy with A231N, E233V, S294L, N320D
light: not shown
notes: as for B1
On to B20, for which, in the test with mouse FcγRIII, the dissociation constant Kd came out at 2500 nM and the “relative mFcγRIII-binding activity (mIgG1 = 1)” value turned out to be 0.15 fold. In the test with mouse FcγRII, binding was put at a Kd of 27.8 nM and the “relative mFcγRII-binding activity (mIgG1 = 1)” value came out at 6.62 fold.

B21: H237-MB832/MRAL-k0 (antibody, mouse IgG1, kappa)
heavy: B1 heavy with A231N, E233V, P327Y, E329Y
light: not shown
notes: as for B1
On to B21, for which, in the test with mouse FcγRIII, the affinity, expressed as Kd, was 3050 nM and the “relative mFcγRIII-binding activity (mIgG1 = 1)” value is 0.12 fold. In the test with mouse FcγRII, the Kd is 40.4 nM and the “relative mFcγRII-binding activity (mIgG1 = 1)” value came to 5.16 fold.
